Molecular target: the molecule itself
Experiment: SDS-PAGE, no laddering in the reduced lane

B1: JIB34 (bispecific antibody)
heavy: QVQLQQPGAELVKPGASVKMSCKASGYTFTNYWINWVKQRPGQGLEWIGDIYPGGGITNYNEKFKTKATLTLDTSSSTVYMQLSSLTSEDSAVYYCSRSYGKYFDYWGQGTTLIVSSASTKGPSVFPLAPSSKSTSGGTAALGCLVKDYFPEPVTVSWNSGALTSGVHTCPAVLQSSGLYSLSSVVTVPSSSLGTQTYICNVNHKPSNTKVDKKVEPKSSDKTHTGGHHHHHH
light: DIKMTQSPSSMYASVGERVTITCKASQDIKSYLTWYQKKPWKSPRTLIFYSTRLADGVPSRFSGSGSGQDFSLTISSLESDDTATYYCLQHDESPFTFGGGTKLEIKRTVAAPSVFIFPPSDEQLKSGTASVVCLLNNFYPREAKVQWKVDNALQSGNSQESVTEQDSKDSTYSLCSTLTLSKADYEKHKVYACEVTHQGLSSPVTKSFNRGESGGGGSGGGGSGGGGSDIQMTQSPSSLSASVGDRVTITCRASQDIRNYLNWYQQKPGKAPKLLIYYTSRLESGVPSRFSGSGSGTDYTLTISSLQPEDFATYYCQQGNTLPWTFGQGTKVEIKGGGGSGGGGSGGGGSEVQLVESGGGLVQPGGSLRLSCAASGYSFTGYTMNWVRQAPGKGLEWVALINPTKGVSTYNQKFKDRFTISVDKSKNTAYLQMNSLRAEDTAVYYCARSGYYGDSDWYFDVWGQGTLVTVSS
notes: HP6017 Fab (bDS) with HzUCHT1 scFv on the light chain; also called anti-Fc HP6017 HzUCHT1 IgR
binding result: no binding

Source: patent publication US20250243274A1 (JIBE THERAPEUTICS, published 2025)
